Where no end group is shown, it is not given here.
Tests used:
[1] = biological target: Anti-CD28 Fab (SEQ ID NOs: 696, 697); assay: phage binding ELISA on captured anti-CD28 Fab pre-incubated with CD28 antigen as competitor
Target sequence in this assay (VH, as listed by the source, chain 1 of 2): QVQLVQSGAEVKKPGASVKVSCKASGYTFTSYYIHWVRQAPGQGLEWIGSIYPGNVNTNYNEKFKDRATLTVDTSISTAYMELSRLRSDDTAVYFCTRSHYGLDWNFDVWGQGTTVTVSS
Target sequence in this assay (VL, as listed by the source, chain 2 of 2): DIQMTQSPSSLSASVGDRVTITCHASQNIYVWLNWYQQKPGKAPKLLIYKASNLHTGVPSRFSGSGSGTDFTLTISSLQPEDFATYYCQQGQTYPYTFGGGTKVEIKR
Experimental: (§1) After panning, phage infected bacteria were plated out and colonies picked into 96 well blocks. Clonal phage was then amplified and separated from bacterial cells via centrifugation.
(§2) Clonal phage were harvested as crude supematants and screened via standard ELISAs. […] Prior to the addition of clonal phage, wells were incubated with blocking buffer and CD28 antigen or blocking buffer alone. Without washing or aspirating, clonal phage supematants were then added to the wells and incubated for a short time. Wells were then washed followed by detection of bound phage using a horse radish conjugated anti-M13 antibody. Clonal phage of interest were then sent for sequence analysis.

[2] = biological target: Anti-CD28 Fab (SEQ ID NOs: 696, 697); assay: phage binding ELISA; biotinylated anti-CD28 Fab captured on neutravidin plate, clonal phage supernatant, anti-M13 HRP detection
Target sequence in this assay (VH, as listed by the source, chain 1 of 2): as the sequence (VH, as listed by the source, chain 1 of 2) above
Target sequence in this assay (VL, as listed by the source, chain 2 of 2): as the sequence (VL, as listed by the source, chain 2 of 2) above
Experimental: as §1, §2

[3] = biological target: T1, anti-CD28 Fab (SEQ ID NOs: 696, 697); assay: phage ELISA; biotinylated anti-CD28 Fab on neutravidin plate, wells pre-incubated with CD28 antigen as competitor, anti-M13 HRP detection
T1 construct: In the phage ELISA the Fab was biotinylated and captured on neutravidin coated plates
T1 sequence (VH, as listed by the source, chain 1 of 2): as the sequence (VH, as listed by the source, chain 1 of 2) above
T1 sequence (VL, as listed by the source, chain 2 of 2): as the sequence (VL, as listed by the source, chain 2 of 2) above
Experimental: as §1, §2

[4] = biological target: T1, anti-CD28 Fab (SEQ ID NOs: 696, 697); assay: phage ELISA; biotinylated anti-CD28 Fab on neutravidin plate, clonal phage supernatant, anti-M13 HRP detection;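 further: crude supernatants of single phage clones picked after panning were screened for binding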
Experimental: as §1, §2

[5] = biological target: T2, Anti-CD28 Fab (SEQ ID NOs: 696, 697); assay: phage ELISA; biotinylated anti-CD28 Fab on neutravidin plate, clonal phage supernatant, anti-M13 HRP
T2 construct: Biotinylated and captured on neutravidin coated plates in the phage ELISA
T2 sequence (VH, as listed by the source, chain 1 of 2): as the sequence (VH, as listed by the source, chain 1 of 2) above
T2 sequence (VL, as listed by the source, chain 2 of 2): as the sequence (VL, as listed by the source, chain 2 of 2) above
Experimental: as §1, §2

[6] = biological target: T2, Anti-CD28 Fab (SEQ ID NOs: 696, 697); assay: phage ELISA on captured anti-CD28 Fab; competitor CD28 antigen pre-incubated in the wells;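 further: clonal phage supernatants added to wells preloaded with CD28 antigen in blocking buffer, control wells buffer only, bound phage read via HRP-linked anti-M13 antibody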
Experimental: as §1, §2

Anti-PSMA Fab [7] = biological target: T3, Anti-PSMA Fab (biotinylated (site not stated)); assay: clonal phage ELISA on captured biotinylated PSMA Fab, anti-M13 HRP detection
T3 construct: Biotinylated PSMA Fab captured on neutravidin plates in the phage ELISA; also called 006 PSMA Fab

Anti-PSMA Fab [8] = biological target: T3, Anti-PSMA Fab; assay: clonal phage ELISA on captured biotinylated PSMA Fab pre-incubated with PSMA antigen as competitor, anti-M13 HRP detection
Experimental: Clonal phage were harvested as crude supernatants and screened via standard ELISAs. […] Prior to the addition of clonal phage. wells were incubated with blocking buffer and PSMA antigen or blocking buffer alone. Without washing or aspirating, clonal phage supernatants were then added to the wells and incubated for a short time. Wells were then washed followed by detection of bound phage using a horse radish conjugated anti-M13 antibody.

| Binder | Anti-CD28 Fab signal in the presence of CD28 (phage binding ELISA) [1] | Anti-CD28 Fab signal (phage binding ELISA) [2] | Phage binding ELISA, Anti-CD28 Fab signal in the presence of CD28 [3] | Phage binding ELISA, Anti-CD28 Fab (SEQ ID NOs: 696, 697) signal [4] | also measured |
| --- | --- | --- | --- | --- | --- |
| YCEGHLPEYMAKCL (peptide, not shown: large carriers, cysteine pairing not given here; also: displayed on phage as fusion to pIII, linker, pIII sequence and order not given here, Clonal phage supernatant of the Peptide-87 optimisation library) [Phage-509] | 0.14 | 2.41 |  |  |  |
| YCEGHLPEYMFKCL (peptide, not shown: large carriers, cysteine pairing not given here; also: displayed on phage as fusion to pIII, linker, pIII sequence and order not given here, Clonal phage supernatant of the Peptide-87 optimisation library) [Phage-510] | 0.12 | 2.4 |  |  |  |
| YCDGHSAEHMAKCL (peptide, not shown: large carriers, Clonal phage supernatant of the Peptide-87 optimisation library) [Phage-507] | 0.08 | 2.41 |  |  |  |
| YCAGHMPQYEVKCL (also called Peptide-95) [Phage-474] |  |  | 0.06 | 0.22 |  |
| YCEGHLPQYMWKCL (peptide, not shown: large carriers, Clonal phage supernatant of the Peptide-87 optimisation library) [Phage-504] | 0.17 | 2.44 |  |  |  |
| YCEGHLPQYMQKCL (peptide, not shown: large carriers, cysteine pairing not given here; also: displayed on phage as fusion to pIII, linker, pIII sequence and order not given here, Clonal phage supernatant of the Peptide-87 optimisation library) [Phage-512] | 0.12 | 2.39 |  |  |  |
| YCAGHSHEYLAKCE (also called Peptide-98) [Phage-477] |  |  | 0.06 | 0.86 |  |
| YCEGHAAEYMAKCL (tested as crude clonal phage supernatant) [Phage-515] |  |  |  |  | Phage binding ELISA, Anti-CD28 Fab signal [5]: 2.38; Phage binding ELISA, Anti-CD28 Fab signal in the presence of CD28 [6]: 0.08 |
| YCAGHLPEYMDKCL (peptide, not shown: large carriers, Clonal phage supernatant of the Peptide-87 optimisation library) [Phage-506] | 0.12 | 2.42 |  |  |  |
| YCEGHLPEYMWKCL (tested as crude clonal phage supernatant) [Phage-514] |  |  |  |  | Phage binding ELISA, Anti-CD28 Fab signal [5]: 2.39; Phage binding ELISA, Anti-CD28 Fab signal in the presence of CD28 [6]: 0.08 |
| YCAGMSTIQLWLKC (also called Peptide-94) [Phage-473] |  |  | 0.09 | 2.16 |  |
| YCAGHAPEYMEKCL (peptide, not shown: large carriers, Clonal phage supernatant of the Peptide-87 optimisation library) [Phage-501] | 0.09 | 2.45 |  |  |  |
| YCEGHSQENIWKCL [Phage-485] |  |  | 0.07 | 1.41 |  |
| YCDGHAPEYMMKCL (tested as crude clonal phage supernatant) [Phage-513] |  |  |  |  | Phage binding ELISA, Anti-CD28 Fab signal [5]: 2.39; Phage binding ELISA, Anti-CD28 Fab signal in the presence of CD28 [6]: 0.09 |
| YCEGHEGIYFWKCL [Phage-480] |  |  | 0.06 | 2.07 |  |
| YCDGHLPEYMEKCL (peptide, not shown: large carriers, Clonal phage supernatant of the Peptide-87 optimisation library) [Phage-503] | 0.1 | 2.44 |  |  |  |

| Binder | Anti-CD28 Fab signal in the presence of CD28 (phage binding ELISA) [1] | Anti-CD28 Fab signal (phage binding ELISA) [2] | Phage binding ELISA, Anti-CD28 Fab signal in the presence of CD28 [3] | Phage binding ELISA, Anti-CD28 Fab (SEQ ID NOs: 696, 697) signal [4] | also measured |
| --- | --- | --- | --- | --- | --- |
| YCDGHLPEYMNKCL (peptide, not shown: large carriers, Clonal phage supernatant of the Peptide-87 optimisation library) [Phage-505] | 0.13 | 2.43 |  |  |  |
| YCDGHLPQYMEKCL (peptide, not shown: large carriers, Clonal phage supernatant of the Peptide-87 optimisation library) [Phage-500] | 0.11 | 2.47 |  |  |  |
| YCDGHSPEYMWKCL (peptide, not shown: large carriers, Clonal phage supernatant of the Peptide-87 optimisation library) [Phage-502] | 0.09 | 2.44 |  |  |  |
| YCDGHLPEYLAKCL (tested as crude clonal phage supernatant) [Phage-516] |  |  |  |  | Phage binding ELISA, Anti-CD28 Fab signal [5]: 2.38; Phage binding ELISA, Anti-CD28 Fab signal in the presence of CD28 [6]: 0.11 |
| YCMGHSHEHIWKCL (also called Peptide-97) [Phage-476] |  |  | 0.07 | 0.87 |  |
| YCAGHLPQYMAKCL (peptide, not shown: large carriers, Clonal phage supernatant of the Peptide-87 optimisation library) [Phage-508] | 0.17 | 2.41 |  |  |  |
| YCDGHLPQYMAQCL (peptide, not shown: large carriers, cysteine pairing not given here; also: displayed on phage as fusion to pIII, linker, pIII sequence and order not given here, Clonal phage supernatant of the Peptide-87 optimisation library) [Phage-511] | 0.2 | 2.4 |  |  |  |
| YCEGHLPEYIEKCL (also called Peptide-120) [Phage-481] |  |  | 0.08 | 2.06 |  |
| DCPWLSGFSRPLLC (also called Peptide-93) [Phage-472] |  |  | 0.07 | 1.27 |  |
| YCEGHAPEYIAKCL [Phage-482] |  |  | 0.09 | 2.15 |  |
| YCEGHAPEYIWKCL [Phage-484] |  |  | 0.07 | 1.63 |  |
| YCEGHAPEYIRKCL [Phage-483] |  |  | 0.08 | 1.63 |  |
| EWPICRPSWMCDDF [Phage-3994] |  |  |  |  | Phage binding ELISA signal, Anti-PSMA Fab (Anti-PSMA Fab [7]): 0.63; Phage binding ELISA signal, Anti-PSMA Fab in presence of PSMA antigen (Anti-PSMA Fab [8]): 0.0604 |
| YCAGHTEEHYVKCM (also called Peptide-96) [Phage-475] |  |  | 0.07 | 0.62 |  |
| YCEGHSPEYILKCL [Phage-478] |  |  | 0.06 | 1.75 |  |
| YCEGHRPEYILKCL [Phage-479] |  |  | 0.06 | 1.27 |  |

Source: US20260242478A1 (published 2026)
